Each block holds one substance with its values, some of them ahead of it.
Columns and labels:
[1] = target: SyB-Cph1(GAF-PHY) Arg101-Ala mutant (Synechococcus sp. JA-2-3B'a(2-13)); assay: SEC; arginine-to-alanine mutants; data not shown
[2] = target: SyB-Cph1(GAF-PHY) Arg133-Ala mutant (Synechococcus sp. JA-2-3B'a(2-13)); assay: SEC; arginine-to-alanine mutants; data not shown
[3] = target: SyB-Cph1(GAF-PHY) Arg111-Ala mutant (Synechococcus sp. JA-2-3B'a(2-13)); assay: SEC; arginine-to-alanine mutants; data not shown
[4] = target: SyB-Cph1(GAF-PHY), the GAF-PHY fragment (photo-sensing module) of the PAS-less phytochrome SyB-Cph1, residues 1-421, assembled with phycocyanobilin, as Pr (Synechococcus sp. JA-2-3B'a(2-13)); assay: SEC; Pr in darkness, 30 mM Tris-HCl (pH 8.0), Superdex 200 Increase 10/300 GL, 0.5 ml/min, gel filtration mass standards

- stoichiometry N [1]: 2
Substance: SyB-Cph1(GAF-PHY) Arg101-Ala mutant (domain or fragment)

- stoichiometry N [2]: 2
Substance: SyB-Cph1(GAF-PHY) Arg133-Ala mutant (domain or fragment)

- stoichiometry N [3]: 2
Substance: SyB-Cph1(GAF-PHY) Arg111-Ala mutant (domain or fragment)

- stoichiometry N [4]: 2
Substance: SyB-Cph1(GAF-PHY), the GAF-PHY fragment (photo-sensing module) of the PAS-less phytochrome SyB-Cph1, residues 1-421, assembled with phycocyanobilin, as Pr (domain or fragment)
